This note sets out measurements from patent US20260241035A1, “FUNCTIONAL NUCLEIC ACID MOLECULE AND METHOD” (THE UNIVERSITY COURT OF THE UNIVERSITY OF EDINBURGH, priority 2022, published 2026).

The chains are these.
B1: ID0785: enhancer fragment, SEQ ID NO: 19 (nucleic acid)
DNA: AAGAATGAACTGGGCCCAGCTGGGCATTTGCATCAAAGTGCCTCACCAGAGTTCCCAGCTGCTCTGGCAGAGTGCCCAGGCTTGCCCCAGAGCCCAAACAGAATGCTCTTTGAGATGCCTCTGGTTTTCA
modifications: listed as DNA, chemistry not given here
B2: ID4310: enhancer fragment, SEQ ID NO: 17 (nucleic acid)
DNA: TTGTCCTGCCTTTGAGAACACTGGAAGGGCACTGAAGGCTGACCAGCATGCACCTCACCCCACCTCCTCTCTGTCTCATCCTCAGCCATCTAAGCGGGAGACTCATCAGGCTTAAATTCTCATTCTTATCCAAGATTCTTCTGCTTCAAATGAG
B3: ID3765: enhancer fragment, SEQ ID NO: 21 (nucleic acid)
DNA: TTGTCCTGCCTTTGAGAACACTGGAAGGGCACTGAAGGCTGACCAGCATGCACCTCACCCCACCTCCTCTCTGTCTCATCCTCAGCCATCTAAGCGGGAGACTCATCAGGCTTAAATTCTCATTCTTATCCAAGATTCTTCTGCTTCAAATGAG
B4: ID3548: enhancer fragment, SEQ ID NO: 15 (nucleic acid)
DNA: TCCAAACACTCCCCTGCAACAGATGTACACACAGAGCCCATTGTTTTCTCTAGAAATGTAAACTGCACGTCACAGTTACTCCATACACACCACAAACAGACTCCCTTTGTTCTCAGGATATGTGTTGACACAAGAATATGTCATCCTCTCAGCTCCAGAC
B5: ID3146: enhancer fragment, SEQ ID NO: 16 (nucleic acid)
DNA: TGAAAGAGATGGGTGTGTGGGAGTGGGGGAAGCTGAGCTCCAGGCAGACAGCACAGAGCCGCCTTGTCCAACCCAGCCAGGTGCCATGGCAACCAACAAAGGCCCCATTGTCCCGTGTCTGCTGGGCCTTCCTGAGGCTCTGGGGTCAGAGTCCCGGTT
B6: ID2706: enhancer fragment, SEQ ID NO: 12 (nucleic acid)
DNA: CCAATGCCAAAGCAGTTTACATTTTACAGATGCCATGGCAACCGTCAGGAAGTTACCCTGTATGGTCTAAGAGGGGGAGGAACCCTCAGTTCCGGGAATTGCCCGCCCCTTTCCCGGAAACTCATGAATAATCCACCC
B7: ID2339: enhancer fragment, SEQ ID NO: 9 (nucleic acid)
DNA: GTCGGCGGAACTGAGTCTCCTTTGTGGAGCCCCTCATTTGCATGATAAACCCCGGGGACAAAGTGTGTTCTTGTTACTTGGACTGTTTCTTGGAAACTGCTGCTACCTGGAGCGAGTGAACACAGGGCAAGTATTCTCGCCCACAGCAACGTGTCATTGA
B8: CSE031: clustered SOX dimer motif enhancer, SEQ ID NO: 52 (nucleic acid)
DNA: CAGAGGAGAGAGGAGGTCATTTGGGACCATTTACTCATGCGAGAGTCACTGCCCCATGCTAAGATTTCCCCTAAAAATAAAATGATAAGATAATAACTCATAATGCTCTCCCCAAATCAGTACCACACAGACCCCCCTCTTCTGTTTGCTCAGACCCCCGCTCTCCAGCACAAAGTCTTTATTGGTCTCCCTGCAGGGGTGAAAATAAAGGGGGTTTTGTTCTTCTCCTCCCCCTCCCCCCTCGAAGGGCTGAGTGAGTTTATCTGACACTGCAGCAGTCTTTGTAAACTGAGTGTCCCAGGATAAACGCTCCCTTAAGAGTCGCTTGGCCTGGGACAGAGGGACCCTCTCCAGAGGAGAATGGGGAGCTTGTTCCAATGGTCTTTTAATATGGGGGGCGGGGTGTCACCAAGGACAGGCCTCCAGCACACTCTCACAGAAGGGTCTCTGTCCTGAGGCTACAGTGGAGGGAATTCTTAAAGACACAGATGCTGAAAAGGGGGAAGGAATTTTTTTTTCCCCTAAGGGGAGGGGAGGGAGGTTAGGGCGGGAAGGAGAAGGGGGAGTGGCGAGGACTCCTCATTCCCCAGAACAATTCCAGTTACAACAAGGCGTCTCTAT
B9: ID1737: enhancer fragment, SEQ ID NO: 10 (nucleic acid)
DNA: CAACGTTTTTGGCAGATGCAGCTCTTTCTGAACAGTAAGTCATTGTTGAGTGACATGAATAGGACGAGAGCTACAGAAAATGAAGGTTTCAAAAGATTGTCTAAAACAAAAGTCCTTTCAGTCCCGTATTCAGAGTT
B10: ID4428: enhancer fragment, SEQ ID NO: 18 (nucleic acid)
DNA: TCTAAATGGAGATCCTCCCATAAAGGGAGTTCTGTTTGGGCTTCCCTTGGAAGTCCATTGAAAGCGTTTCACATTTCAATGCTTCTTTACATTCTCCTCTAGAATGAATCTGGAAGGGCCATTTCATTCCAGCCCTATCAGATTTACTACTTCCTCCTGT
B11: ID1176: enhancer fragment, SEQ ID NO: 22 (nucleic acid)
DNA: ACAAACTAAACACAGACATTTTCTCAATTAGTCATTTTCAGGTTTATTGCCTAAGATGCTAATTGAAATTCAGGGCAGGCAAAAATACATCATTGGCCTTTGTATATCTTTGAAAGGCCTTCTGATGGGACCTTGCTCCGTATAAAGGCTTCTCTTCTCT
B12: ID0291: enhancer fragment, SEQ ID NO: 24 (nucleic acid)
DNA: CATTCTTTGCAGATAGGAAACAGTTTGCTATCTGAGAGACTGGCCAAAAACCTTACTTTCAAGTAAAATAGGGCTCTATTCATAAGCTCCTACATGTACACAAGTTACTCTTTATACTCCTTTCAGACAATGATAAGAATAGAAACTATTTAATTCAGGA
B13: ID0885: enhancer fragment, SEQ ID NO: 14 (nucleic acid)
DNA: CAGCAAAGGCTGCACGCAATGGGGGAGGGGGAAGGAGGGAAGGATATTTCCTCCTTTTTAGATCAGTTTCTTTTCTGAGCACAAGTGCTTTCTGTGTCATCCTAACAATGTAAGAGCCCACTAAGTTTAGGACGCATAATACCGGCCTTTGTTCTACTCC
B14: ID0663: enhancer fragment, SEQ ID NO: 11 (nucleic acid)
DNA: ATAAATTCCGATTAGCCAAGGAAGCTCTGAGTCTAAATACCAGCAAAGCTCAGCCCCTGCAAGTGGGGACGAATTATTTGAAAGGTCATCCTAGAGACACTGAACAAAGGGCCTCTAGCAGCT
modifications: listed as DNA, chemistry not given here
B15: ID1888: enhancer fragment, SEQ ID NO: 23 (nucleic acid)
DNA: GACCTTGCCTCTTTCTGGCCTGTGGCCTTTCTCCTCCCCCAGCTGCTGTCTGGCCGCCCCACCCCCAAGTCTCTGCCACAACCAAAGCTCCTTTGTTGCCTCCCCCTGCCCCGGGCCTCTCCACCTGCTGCTAGCTCAATCCCCTCTTTGTGTGGTTGGT
B16: CSE006: clustered SOX dimer motif enhancer, SEQ ID NO: 53 (nucleic acid)
DNA: AGGAAGAAGCATGCTGGGTCATTTTTGCCTTGTTTCTAGCTGCATGAATTGAAAAGCCAGGCCCAGGTTCAATGCATCATTCTTGAAGCAGTGAACAAAATCCCTCTTTGTTCCCCAGTGAAACTTATCTCTGAAGAGCTGCACTACTTCCTGTGAGATATAGCCCTGCAGATGTGTCGTGGGAGACCCGCCCGGCTGCACTGCCTTCCATAAAAGTGCAAGAATGGGCACTTTGTACTGCTGGACTGAAAATGACACTCACTCTTCTGATCCCCACTGGGGTTACCAAGTGGGCAAAACTTCCTGCTTAGAGGAGGGGTCATAGACAGCAGGGGGAGTGTGTGATTTTGTTTTGTTCCTTTGTGAATTTGTTTAGCTATTTATAGAGCTAAAGGAGAAAGCAAACGGGCACAATGTAGCACAGTGTTTTTCAAAGTGTATTCCATGGAACCCTTTCGTGGGTTGCAGACCCCAGGGGTGGAGGCAGAGGATGGGGTGGTGACAGCAGCAGGTGCTGTCCAGGGCCTTCTGTCT
B17: ID3836: enhancer fragment, SEQ ID NO: 20 (nucleic acid)
DNA: TACCCTTCCAGGGGAGCAGTTTCCTGGCTGTGTCGTCAGATACTGTGGTTTACGCTGTTCCGGAGTCTGGAGGTCTGTGTGCCTTTGATCTCTTTCCCAACTAATTTGCACAGCTGCTGTGGAGGCCCTCATGAATGACCTCTTTCTTTCCTTTCT
B18: ID3547: enhancer fragment, SEQ ID NO: 13 (nucleic acid)
DNA: CGTTCCCCCTTAACAAAAGCCACCTCCTCCCTCCTGAAAGGCACCATTGGTCACCAAAACAAGTCCCCTTTGTCCTCCACCGCAGCTGGAGCCTGGGCCTTCCATCTCCTGGGGGCCAATAAAACCCCAGATCAGCCAATCCTCCCTCCCTGGCTCTGTCA
B19: CSE074: clustered SOX dimer motif enhancer, SEQ ID NO: 51 (nucleic acid)
DNA: ATACATTTTAGCACCAAACACAATTTAATAACAGGGCACAGAGGCCGCAAAGCCTCCTGATTCTGTTCCATTACTAATTTATCAGGGGCTGAAAGCAACCAAACTTAGGATCCCAGGCAGACAATGGAGCCTTTGAGGGGCAAGGGAAGCATCATTTAAAAGGAAAGCATTACCATTCTAAAATAATGGCAAAGCACATGAACTGAGTGCTCTGAAAGAGAGCACTACAAAAAAGGTATTCTCAGCTTAAATGCCCCAAACACAAAAGCTTTTAGTTGGGACTTAGACGGGAAAAAGAAAATAGCTCCCAATAAATTGGTTTTACCAGTATCCTTTTGTGTGTGCTGGTGCCAAGGGGGCGAGGGTACAGGCAAAGCGTGATTTTCCAAAACCTAGCTGAATTATGTTTCTTCTTTAGAACAAAACCCAACATTTTGCTAATGAGGATAAAGACAGTAAAACTGATATTCCTGTGCTATTACTAACTTGG

For this data set, the system named is GSC7 cells. In words: Nano-Glo Dual-Luciferase Reporter (Nanoglo DLR) assay of enhancer activity, fold change to mCMV. It is filed as cell-based, human. The note with it: expression fold change of the individual enhancer compared to mCMV. Put shortly:
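160 bp enhancer fragments in NanoLuc reporter plasmids were co-transfected 1:10 with PGK-firefly luciferase into GSC7 cells using Lipofectamine LTX/Plus and read two days later. NanoLuc signal was normalised to firefly, then expressed as fold change to the empty mCMV vector.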
A general note: Reporter assays use an easily measured gene product as a stand-in for the process of interest.
As for B1, the “Fold change (Median)” value is 34.3 fold. Consider B2, for which the “Fold change (Median)” value is 36.3 fold. For B3 the value was 31.7 fold; for B4, 40.0 fold. In the case of B5 it was 37.2 fold; in that of B6, 57.2 fold. Take B7: the “Fold change (Median)” value came out at 79.6 fold. On to B8, for which the “Fold change (Median)” value came to 249.3 fold. On to B9, for which the “Fold change (Median)” value stood at 77.1 fold. In the case of B10, the “Fold change (Median)” value is 36.2 fold. Consider B11, for which the “Fold change (Median)” value is given as 31.3 fold. For B12 the value was 29.0 fold; for B13, 42.6 fold; for B14, 59.1 fold. Take B15: the “Fold change (Median)” value came to 31.1 fold. For B16 the value was 524.3 fold; for B17, 33.4 fold; for B18, 53.2 fold. Turning to B19, the “Fold change (Median)” value turned out to be 250.6 fold.
